In patent US20180335435A1 (METAFORA BIOSYSTEMS, published 2018):

Target: T1, human CAT1 (cationic amino acid transporter-1, SLC7A1) (human, UniProt P30825 1-629)
T1 construct: Endogenous on HEK293T cells or expressed from a human CAT1 vector in QT6, HEK293T or CHO cells; also called CAT1/SLC7A1; Hu-CAT1
Assay: flow cytometry on HEK293T cells transfected with siRNA to CAT1 (n=3)

T1 sequence (P30825 whole entry): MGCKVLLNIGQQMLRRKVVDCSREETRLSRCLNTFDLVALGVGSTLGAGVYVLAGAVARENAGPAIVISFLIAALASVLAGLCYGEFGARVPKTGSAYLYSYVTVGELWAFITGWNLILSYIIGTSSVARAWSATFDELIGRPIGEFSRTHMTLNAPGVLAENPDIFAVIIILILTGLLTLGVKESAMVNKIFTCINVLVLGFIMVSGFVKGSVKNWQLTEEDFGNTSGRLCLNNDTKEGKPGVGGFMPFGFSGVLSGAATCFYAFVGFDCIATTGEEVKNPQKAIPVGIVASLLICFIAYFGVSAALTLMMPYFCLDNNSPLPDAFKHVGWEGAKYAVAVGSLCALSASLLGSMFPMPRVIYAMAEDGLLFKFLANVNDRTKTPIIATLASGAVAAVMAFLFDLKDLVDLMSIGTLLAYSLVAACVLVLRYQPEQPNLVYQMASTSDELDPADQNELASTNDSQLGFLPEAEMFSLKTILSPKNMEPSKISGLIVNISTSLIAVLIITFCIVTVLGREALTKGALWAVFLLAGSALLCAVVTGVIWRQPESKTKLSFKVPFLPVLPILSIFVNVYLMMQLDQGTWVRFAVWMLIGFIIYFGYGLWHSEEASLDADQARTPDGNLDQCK

B1: BLV.RBD-mFc ligand (receptor-binding domain of the bovine leukemia virus envelope glycoprotein tagged in frame with the constant fragment of mouse … (Fc fusion)
chain: WRCSLSLGNQQWMTTYNQEAKFFISIDQILEAHNQSPFCPRSPRYTLDFVNGYPKIYWPPPQGRRRFGARAMVTYDCEPRCPYVGADHFDCPHWDNASQADQGSFYVNHQTLFLHLKQCHGIFTLTWEIWGYDPLITFSLHKIPAPPQGSVDVPRDCGCKPCICTVPEVSSVFIFPPKPKDVLTITLTPKVTCVVVDISKDDPEVQFSWFVDDVEVHTAQTQPREEQFNSTFRSVSELPIMHQDWLNGKEFKCRVNSAAFPAPIEKTISKTKGRPKAPQVYTIPPPKEQMAKDKVSLTCMITDFFPEDITVEWQWNGQPAENYKNTQPIMDTDGSYFVYSKLNVQKSNWEAGNTFTCSVLHEGLHNHHTEKSLSHSPGK
notes: Used as a 1/10 dilution, detected with anti-mouse IgG1-Alexa Fluor 488; also called BLV.RBD ligand; BLV.RBD tagged with mouse Fc (mFc)
  fold decrease of binding after siRNA against CAT1 mRNA: 3.5 fold
